Test results reported in paper PMC8026125 (Science Advances, 2021).

T1: Ccl1 (yeast, UniProt P37366 1-393)
T1 sequence: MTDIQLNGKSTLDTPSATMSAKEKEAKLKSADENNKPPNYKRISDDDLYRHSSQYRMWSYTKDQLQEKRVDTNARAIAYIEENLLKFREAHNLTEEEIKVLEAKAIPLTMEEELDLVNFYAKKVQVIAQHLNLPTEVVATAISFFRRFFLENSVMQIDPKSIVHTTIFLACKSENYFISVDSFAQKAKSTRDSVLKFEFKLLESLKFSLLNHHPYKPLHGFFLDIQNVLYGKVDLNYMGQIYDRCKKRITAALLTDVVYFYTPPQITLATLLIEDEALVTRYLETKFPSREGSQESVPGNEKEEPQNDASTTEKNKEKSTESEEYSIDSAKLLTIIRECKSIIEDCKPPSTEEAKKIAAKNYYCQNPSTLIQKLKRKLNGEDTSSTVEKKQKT

B1: Tfb3 (natural protein)
chain: MLMDEYEENKDMCPICKTDRYLSPDVKFLVNPECYHRICESCVDRIFSLGPAQCPYKGCDKILRKNKFKTQIFDDVEVEKEVDIRKRVFNVFNKTIDDFNGDLVEYNKYLEEVEDIIYKLDHGIDVAKTEEKLRTYEELNKQLIMNNLERSRTEIESFEQRQKFEKEMKLKKRLLERQIEEEERMNKEWTKKEIVNRLSTTTQDINETIEGVKNTVKLKKSSARRKLEELNRVLKNNPYFNSNVNVQNSRLKDAVPFTPFNGDREAHPRFTLKGSVYNDPFIKDLEHRKEFIASGFNTNYAYERVLTEAFMGLGCVISEEL
B2: Kin28 (enzyme)
chain: MKVNMEYTKEKKVGEGTYAVVYLGCQHSTGRKIAIKEIKTSEFKDGLDMSAIREVKYLQEMQHPNVIELIDIFMAYDNLNLVLEFLPTDLEVVIKDKSILFTPADIKAWMLMTLRGVYHCHRNFILHRDLKPNNLLFSPDGQIKVADFGLARAIPAPHEILTSNVVTRWYRAPELLFGAKHYTSAIDIWSVGVIFAELMLRIPYLPGQNDVDQMEVTFRALGTPTDRDWPEVSSFMTYNKLQIYPPPSRDELRKRFIAASEYALDFMCGMLTMNPQKRWTAVQCLESDYFKELPPPSDPSSIKIRN
modifications: phosphothreonine at 162 (pT162)

Key:
Ccl1 = biological target: T1, Ccl1; test: cryo-EM structure
Tfb3 = biological target: B1; test: cryo-EM structure

binding result (Ccl1)	binding result (Tfb3)	Binder
binds	–	B1
binds	binds	B2
